Data as given in the Human Domainome abundance scans (Beltran et al. 2025).
± gives the uncertainty stated by the source.

B1: Ankyrin-1, residues 1405 to 1484; numbered along this chain, P16157 (parent)
chain: MKMAVISEHLGLSWAELARELQFSVEDINRIRVENPNSLLEQSVALLNLWVIREGQNANMENLYTALQSIDRGEIVNMLE

Variants of: B1
Experiment: abundance fitness (aPCA) (normalised: wild type 0, dead -1); higher = more abundant; growth selection in yeast, the domain comes from the species named
Settings: Homo sapiens

L17W and L17P are within error of each other in abundance fitness: -0.636 ± 0.12 for the first, -0.881 ± 0.23 for the second.

Going from L17F to L17M, the abundance fitness falls from 0.009 ± 0.11 to -0.25 ± 0.12.

Going from E34P to E34L, the abundance fitness rises from -0.992 ± 0.49 to -0.241 ± 0.097.

E34D and E34H are within error of each other in abundance fitness: -0.186 ± 0.33 for the first, -0.453 ± 0.18 for the second.

E34C and E34G are within error of each other in abundance fitness: -0.257 ± 0.19 for the first, -0.166 ± 0.074 for the second.

Going from E34W to Y64N, the abundance fitness rises from -0.559 ± 0.28 to 0.087 ± 0.2.

Y64H and Y64Q are within error of each other in abundance fitness: -0.312 ± 0.17 for the first, -0.594 ± 0.2 for the second.

Compared with I75V, I75F is lower in abundance fitness: -0.098 ± 0.073 for the first, -0.785 ± 0.45 for the second.

I75W and I75Y are within error of each other in abundance fitness: -0.663 ± 0.17 for the first, -0.692 ± 0.36 for the second.

I75P and I75E are within error of each other in abundance fitness: -0.546 ± 0.14 for the first, -0.766 ± 0.23 for the second.

First: W50E
Second: W50L
The abundance fitness of the first is lower: -0.834 ± 0.23 for the first, -0.368 ± 0.082 for the second.

W50D and W50R are within error of each other in abundance fitness: -0.653 ± 0.29 for the first, -0.863 ± 0.12 for the second.

First: S7C
Second: S7R
The abundance fitness of the first is higher: -0.089 ± 0.068 for the first, -0.504 ± 0.059 for the second.

S7D and S7H are within error of each other in abundance fitness: -0.821 ± 0.16 for the first, -0.877 ± 0.39 for the second.

Going from A4M to A4K, the abundance fitness rises from -0.434 ± 0.19 to 0.148 ± 0.18.

Going from A4N to A4W, the abundance fitness falls from -0.035 ± 0.13 to -0.397 ± 0.15.

First: A4R
Second: A4V
The abundance fitness of the first is higher: -0.071 ± 0.076 for the first, -0.35 ± 0.074 for the second.

Going from G11P to G11H, the abundance fitness rises from -0.997 ± 0.49 to 0.028 ± 0.4.

Going from G11D to G11W, the abundance fitness falls from -0.171 ± 0.23 to -0.893 ± 0.18.

Compared with G11F, E80N is higher in abundance fitness: -0.581 ± 0.16 for the first, -0.045 ± 0.14 for the second.

E80F and E80V are within error of each other in abundance fitness: -0.023 ± 0.1 for the first, -0.154 ± 0.13 for the second.

Going from E41D to E41Y, the abundance fitness falls from 0.007 ± 0.12 to -0.28 ± 0.096.

Compared with E41P, E41G is higher in abundance fitness: -0.574 ± 0.19 for the first, -0.086 ± 0.035 for the second.

First: M1V
Second: E54W
The abundance fitness of the first is higher: 0 ± 0.27 for the first, -0.62 ± 0.11 for the second.

First: E54R
Second: E54N
The abundance fitness of the first is lower: -0.456 ± 0.065 for the first, -0.043 ± 0.091 for the second.

E54H and E54T are within error of each other in abundance fitness: -0.294 ± 0.17 for the first, -0.455 ± 0.098 for the second.

First: E54I
Second: A15I
The abundance fitness of the first is lower: -0.931 ± 0.26 for the first, 0.132 ± 0.072 for the second.

First: A15L
Second: A15D
The abundance fitness of the first is higher: 0.076 ± 0.049 for the first, -0.209 ± 0.11 for the second.

A15T and A15K are within error of each other in abundance fitness: 0 ± 0.064 for the first, -0.251 ± 0.22 for the second.

A15W and A15Q are within error of each other in abundance fitness: -0.288 ± 0.065 for the first, -0.171 ± 0.13 for the second.

R30S and R30E are within error of each other in abundance fitness: -0.139 ± 0.062 for the first, -0.292 ± 0.13 for the second.

Going from R30L to N59V, the abundance fitness rises from -0.213 ± 0.057 to -0.078 ± 0.046.

First: N59H
Second: N59S
The abundance fitness of the first is lower: -0.376 ± 0.28 for the first, 0.059 ± 0.062 for the second.

Compared with N59L, N59R is higher in abundance fitness: -0.2 ± 0.1 for the first, 0.034 ± 0.053 for the second.

S24K and S24P are within error of each other in abundance fitness: -0.147 ± 0.099 for the first, -0.209 ± 0.056 for the second.

First: S24G
Second: L47C
The abundance fitness of the first is lower: -0.23 ± 0.054 for the first, -0.061 ± 0.083 for the second.

Going from L47N to M60S, the abundance fitness rises from -0.914 ± 0.35 to -0.28 ± 0.14.

Compared with M60W, M60G is lower in abundance fitness: 0.055 ± 0.18 for the first, -0.813 ± 0.2 for the second.

Going from A45T to A45I, the abundance fitness falls from -0.085 ± 0.074 to -0.45 ± 0.14.

Compared with A45L, A45Q is higher in abundance fitness: -0.627 ± 0.088 for the first, -0.139 ± 0.1 for the second.

S69N and S69R are within error of each other in abundance fitness: -0.106 ± 0.11 for the first, -0.006 ± 0.053 for the second.

S69I and S69C are within error of each other in abundance fitness: -0.047 ± 0.078 for the first, 0.056 ± 0.095 for the second.

First: S69H
Second: A18E
The abundance fitness of the first is higher: 0.342 ± 0.18 for the first, -0.39 ± 0.14 for the second.

A18P and A18R are within error of each other in abundance fitness: -0.912 ± 0.17 for the first, -0.681 ± 0.1 for the second.

A18T and A18C are within error of each other in abundance fitness: -0.89 ± 0.2 for the first, -1.05 ± 0.29 for the second.

V33N and V33Q are within error of each other in abundance fitness: -0.103 ± 0.28 for the first, 0.033 ± 0.09 for the second.

V33F and V33G are within error of each other in abundance fitness: 0.021 ± 0.12 for the first, -0.041 ± 0.04 for the second.

P36W and P36E are within error of each other in abundance fitness: -0.219 ± 0.095 for the first, -0.066 ± 0.12 for the second.

Compared with P36A, P36V is lower in abundance fitness: 0.016 ± 0.071 for the first, -0.666 ± 0.12 for the second.

P36D and P36N are within error of each other in abundance fitness: -0.165 ± 0.14 for the first, -0.104 ± 0.25 for the second.

K2Y and K2C are within error of each other in abundance fitness: -0.318 ± 0.11 for the first, -0.284 ± 0.14 for the second.

K2N and K2E are within error of each other in abundance fitness: -0.081 ± 0.095 for the first, 0.095 ± 0.1 for the second.

Going from K2Q to R53F, the abundance fitness falls from -0.155 ± 0.11 to -0.927 ± 0.22.

R53Y and R53S are within error of each other in abundance fitness: -0.842 ± 0.35 for the first, -0.591 ± 0.1 for the second.

R53G and G55K are within error of each other in abundance fitness: -0.507 ± 0.058 for the first, -0.666 ± 0.44 for the second.

First: G55W
Second: L79F
The abundance fitness of the first is lower: -1.01 ± 0.42 for the first, -0.331 ± 0.14 for the second.

L79H and N62E are within error of each other in abundance fitness: -0.199 ± 0.15 for the first, -0.197 ± 0.17 for the second.

N62P and S13A are within error of each other in abundance fitness: -0.265 ± 0.15 for the first, -0.021 ± 0.11 for the second.

S13F and S13V are within error of each other in abundance fitness: -0.333 ± 0.14 for the first, -0.5 ± 0.049 for the second.

N57L and N57D are within error of each other in abundance fitness: -0.108 ± 0.066 for the first, -0.072 ± 0.15 for the second.

N57H and N57E are within error of each other in abundance fitness: -0.255 ± 0.29 for the first, 0.163 ± 0.15 for the second.

V25E and V25Q are within error of each other in abundance fitness: 0.078 ± 0.06 for the first, -0.03 ± 0.066 for the second.

V25K and V25T are within error of each other in abundance fitness: -0.005 ± 0.11 for the first, -0.159 ± 0.079 for the second.

V25P and V25S are within error of each other in abundance fitness: 0.018 ± 0.076 for the first, 0.002 ± 0.054 for the second.

First: V25H
Second: V25I
The abundance fitness of the first is higher: 0.159 ± 0.085 for the first, -0.143 ± 0.21 for the second.

V25L and N77L are within error of each other in abundance fitness: -0.073 ± 0.036 for the first, -0.043 ± 0.07 for the second.

Going from N77A to N77M, the abundance fitness falls from 0.084 ± 0.061 to -0.152 ± 0.12.

N77D and N77Y are within error of each other in abundance fitness: -0.347 ± 0.19 for the first, -0.215 ± 0.16 for the second.

N77P and N77E are within error of each other in abundance fitness: -0.283 ± 0.11 for the first, -0.111 ± 0.11 for the second.

M78R and M78N are within error of each other in abundance fitness: 0.034 ± 0.051 for the first, -0.01 ± 0.15 for the second.

M78H and M78E are within error of each other in abundance fitness: -0.158 ± 0.15 for the first, -0.236 ± 0.14 for the second.

R19N and R19K are within error of each other in abundance fitness: -0.32 ± 0.23 for the first, -0.048 ± 0.17 for the second.

R19C and N48S are within error of each other in abundance fitness: -0.17 ± 0.077 for the first, -0.277 ± 0.07 for the second.

Going from N48R to N48V, the abundance fitness falls from -0.006 ± 0.052 to -0.474 ± 0.094.

Compared with N48K, N48C is lower in abundance fitness: 0.098 ± 0.081 for the first, -0.495 ± 0.17 for the second.

N48E and N48T are within error of each other in abundance fitness: -0.458 ± 0.11 for the first, -0.544 ± 0.11 for the second.

N48L and N48I are within error of each other in abundance fitness: -0.835 ± 0.091 for the first, -1.04 ± 0.24 for the second.

Going from F23I to F23N, the abundance fitness falls from 0 ± 0.1 to -1.02 ± 0.32.

Going from F23Y to F23Q, the abundance fitness falls from -0.478 ± 0.12 to -0.883 ± 0.24.

F23T and F23H are within error of each other in abundance fitness: -0.908 ± 0.31 for the first, -0.829 ± 0.36 for the second.

L12G and L12R are within error of each other in abundance fitness: 0.104 ± 0.082 for the first, -0.038 ± 0.09 for the second.

L10G and L10Q are within error of each other in abundance fitness: -0.971 ± 0.21 for the first, -0.898 ± 0.29 for the second.

Going from L10I to L10A, the abundance fitness falls from -0.172 ± 0.15 to -0.884 ± 0.2.

Q68D gave an abundance fitness of -0.109 ± 0.11.
